Experimental findings from article PMC7791966 (Experimental and Therapeutic Medicine, 2020) are described below.

Numbering of substitutions follows the chain as printed.

The target of the assay is Recombinant human HER2 (Homo sapiens, UniProt P04626). Kind of assay: SPR.

B1: e23sFv, mouse anti-HER2 single-chain variable fragment (scFv, V domains shown)
VH: VQLQESGPEVVKPGGSMKISCKTSGYSFTGHTMNWVKQSHGKNLEWIGLINPYNGDTNYNQKFKGKATFTVDKSSSTAYMELLSLTSEDSAVYYCARRVTDWYFDVWGAGTTVTVS
VL: DLQLTQSPAILSASPGEKVTMTCRATPSVSYMHWYQQKPGSSPKPWIYTTSNLASGVPARFSGGGSGTSYSLTVSRVEAEDAATYYCQQWSRSPPTFGGGSKLEIK
With B1, the Kd was 2.5 nM.

B2: EMEY, e23sFv derivative with 11 point mutations in the framework regions (scFv, V domains shown)
VH: B1 VH with V10L, M17V, T23A, N43G, F69L, L83S
VL: B1 VL with S41T, P45L, G64S, V74I, S101T
Consider B2, for which the Kd is approximately 500 nM.
